Assay results taken from doi:10.1101/2023.05.10.540081v1.
Where a chain is given by its changes, count along the chain named. Numbers in names are those of the source.

B1: β-glucosidase B (BglB) (Paenibacillus polymyxa) (protein)
chain: MSENTFIFPATFMWGTSTSSYQIEGGTDEGGRTPSIWDTFCQIPGKVIGGDCGDVACDHFHHFKEDVQLMKQLGFLHYRFSVAWPRIMPAAGIINEEGLLFYEHLLDEIELAGLIPMLTLYHWDLPQWIEDEGGWTQRETIQHFKTYASVIMDRFGERINWWNTINEPYCASILGYGTGEHAPGHENWREAFTAAHHILMCHGIASNLHKEKGLTGKIGITLNMEHVDAASERPEDVAAAIRRDGFINRWFAEPLFNGKYPEDMVEWYGTYLNGLDFVQPGDMELIQQPGDFLGINYYTRSIIRSTNDASLLQVEQVHMEEPVTDMGWEIHPESFYKLLTRIEKDFSKGLPILITENGAAMRDELVNGQIEDTGRHGYIEEHLKACHRFIEEGGQLKGYFVWSFLDNFEWAWGYSKRFGIVHINYETQERTPKQSALWFKQMMAKNGF
B2: β-glucosidase B (BglB) (Paenibacillus polymyxa; M224K) (protein)
chain: B1 chain with M224K
B3: β-glucosidase B (BglB) (Paenibacillus polymyxa; Y169H) (protein)
chain: B1 chain with Y169H
B4: β-glucosidase B (BglB) (Paenibacillus polymyxa; V314D) (protein)
chain: B1 chain with V314D

Substrate: O=[N+]([O-])c1ccc(O[C@@H]2O[C@H](CO)[C@@H](O)[C@H](O)[C@H]2O)cc1
Assay: purified protein
Conditions: technical triplicates
[1] = biological replicate a of two, low protein yield

Protein	Km [mM]	kcat [s⁻¹]	other results
B1	4.38	6.1433	
B2			Km [1]: 7.54 mM; kcat [1]: 1.695 s⁻¹
B3			Km (biological replicate a of two): 22.35 mM; kcat (biological replicate a of two): 9.8983 s⁻¹
B4	6.84	4.9167	
